The values that follow come from PMC4476070.

Like-named read-outs stand apart in the source and are kept apart here.

Series [1] has as its target T1, DMRT1 full-length (Homo sapiens, UniProt Q9Y5R6 1-373). Nature of the series: EMSA.
The target of series [2] is T2, SUMO-DMRT1 67-136 (Homo sapiens, UniProt Q9Y5R6 67-136). The series is described as follows: EMSA. Background: A gel shift assay detects complexes by their altered migration in electrophoresis.
Series [3] deals with T3, DMRT1 full-length;DMRT1 R111G (Homo sapiens;Homo sapiens, UniProt Q9Y5R6;Q9Y5R6 1-373;1-373, |R111G). Nature of the series: EMSA.
Series [4] deals with T2, SUMO-DMRT1 67-136. The series is described as follows: EMSA. This is another data set of the same source.
Series [5] concerns the target T1, DMRT1 full-length. Nature of the series: EMSA. The source holds these as a separate data set.
The next series addresses DMRT1 67-136 (Homo sapiens, UniProt Q9Y5R6 67-136). Nature of the series: X-ray crystallography.
For a further series, the target named is DMRT1 R123Q (Homo sapiens, UniProt Q9Y5R6 1-373, R123Q). The series is described as follows: EMSA.
Another series concerns the target DMRT1 R123A (Homo sapiens, UniProt Q9Y5R6 1-373, R123A). The series is described as follows: EMSA.
For series [6], the target named is T1, DMRT1 full-length. The series is described as follows: EMSA. The source holds these as a separate data set.
The target of series [7] is T3, DMRT1 full-length;DMRT1 R111G. The series is described as follows: EMSA. This is another data set of the same source.

T1 sequence (Q9Y5R6 whole entry): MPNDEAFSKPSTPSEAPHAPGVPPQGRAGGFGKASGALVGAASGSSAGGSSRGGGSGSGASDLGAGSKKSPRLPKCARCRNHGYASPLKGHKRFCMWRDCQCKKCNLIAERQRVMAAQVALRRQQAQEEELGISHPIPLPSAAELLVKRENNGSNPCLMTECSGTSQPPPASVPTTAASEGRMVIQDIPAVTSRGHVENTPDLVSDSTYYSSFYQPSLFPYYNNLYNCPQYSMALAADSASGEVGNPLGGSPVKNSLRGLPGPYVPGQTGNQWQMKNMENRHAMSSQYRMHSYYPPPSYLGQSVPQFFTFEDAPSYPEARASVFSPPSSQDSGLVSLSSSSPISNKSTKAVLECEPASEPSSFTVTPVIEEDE
T2 sequence (Q9Y5R6 67-136): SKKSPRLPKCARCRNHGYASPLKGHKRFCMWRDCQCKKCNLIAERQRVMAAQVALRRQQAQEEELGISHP
T3 sequence (Q9Y5R6 whole entry, stated change not applied, chain 1 of 2): as the sequence (Q9Y5R6 whole entry) above
T3 sequence (Q9Y5R6 whole entry R111G, chain 2 of 2): as the sequence (Q9Y5R6 whole entry) above, with R111G counted along it
Sequence of DMRT1 R123Q (Q9Y5R6 whole entry R123Q): as the sequence (Q9Y5R6 whole entry) above, with R123Q counted along it
Sequence of DMRT1 67-136 (Q9Y5R6 67-136): as the sequence (Q9Y5R6 67-136) above
Sequence of DMRT1 R123A (Q9Y5R6 whole entry R123A): as the sequence (Q9Y5R6 whole entry) above, with R123A counted along it

B1: Site 1 (27 bp) (dsDNA)
DNA 1: GAGATTTGATACATTGTTGCTCGATGG
DNA 2: CCATCGAGCAACAATGTATCAAATCTC
As for B1, the binding result (with DMRT1 full-length [1]; with SUMO-DMRT1 67-136 [2]; in [3]) was “binds” in each case.

B2: Site 4 (27 bp) (dsDNA)
DNA 1: TTGCTATGATACATTGTATCTTGCTGG
DNA 2: CCAGCAAGATACAATGTATCATAGCAA
Regarding B2, in the series with SUMO-DMRT1 67-136 [4], the binding result was “binds”.

B3: Site 3 (27 bp) (dsDNA)
DNA 1: GAGATTTGATACATTATTAATTTATGG
DNA 2: CCATAAATTAATAATGTATCAAATCTC
In the case of B3, the binding result with DMRT1 full-length [5] is recorded as “binds”.

B4: Site 1 crystal 25-mer (dsDNA)
DNA 1: CGAGATTTGATACATTGTTGCTCGA
DNA 2: TCGAGCAACAATGTATCAAATCTCG
Turning to B4, the binding result in the series with DMRT1 67-136 is “binds”.

B5: Site 1 (49 bp) (dsDNA)
DNA 1: GTGGCTGGGCAGAGATTTGATACATTGTTGCTCGATGGAGGTCAGGTCT
DNA 2: AGACCTGACCTCCATCGAGCAACAATGTATCAAATCTCTGCCCAGCCAC
Take B5: the binding result in the series with DMRT1 R123Q and with DMRT1 R123A was “no binding” throughout.

B6: Site 2 (27 bp) (dsDNA)
DNA 1: GAGATTTGATACATTGTTACTTTATGG
DNA 2: CCATAAAGTAACAATGTATCAAATCTC
On to B6, for which, in the series with DMRT1 full-length [6], the binding result is on record as “binds”.

B7: Sox9 site (dsDNA)
DNA 1: GTGGCTGGGCACCCTGCAGAGACAATGTTTCCAGCTGCAGGTCAGGTCT
DNA 2: AGACCTGACCTGCAGCTGGAAACATTGTCTCTGCAGGGTGCCCAGCCAC
On to B7, for which the binding result (with DMRT1 full-length [1]; in [7]) was “binds” each time.
